B1: Found-SH (ssDNA)
DNA: CACCGCTTTTGCCTTTTGGGGACGGATATAGGGAAACACGATAGAATCCGAACAGCACC
B2: RBD-1C (biotinylated) (ssDNA)
DNA: CAGCACCGACCTTGTGCTTTGGGAGTGCTGGTCCAAGGGCGTTAATGGACA
B3: RBD-1C-Cy3 (ssDNA)
DNA: B2 DNA

Legend:
[1] = target: T1, RBD on Ag nanoparticles (RBD NP) (SARS-CoV-2 (Wuhan strain), UniProt P0DTC2 319-541); test: SERS sandwich; BLI ([…]; BLI ([…], room temperature; […]
[2] = target: T1, RBD on Ag nanoparticles (RBD NP); test: BLI; BLI ([…]; BLI ([…], room temperature; […]

Binder	binding result [1]	binding result [2]
B1	binds	–
B2	–	binds
B3	binds	–
